Tests used:
pErbB1 in NCI-ADRr cells = experiment: ErbB1 phosphorylation dose response curves for ErbB ligands (ELISA); type: cell-based, human
Protocol: (§1) For stimulation of the cells, the cells are seeded in […] at 35,000 cells per well in 96 well tissue culture plates and incubated overnight in a humidified atmosphere of 5% CO2, 95% air and 37 degrees Celsius. Cells are then switched to serum free media: RPMI-1640 media (Gibco) supplemented with, 2 mM L-glutamine (Gibco) and units/mL Pen-Strep (Gibco). Starved cells are incubated in a humidified atmosphere of 5% CO2, 95% air and 37 degrees Celsius for 20-24 hours prior to stimulation.
(§2) Levels of protein phosphorylation in the stimulated cells are measured by ELISA. Capture antibodies against ErbB1 (R&D Systems, AF231), ErbB2 (R&D Systems, MAB1129), ErbB3 (R&D Systems, MAB3481) and AKT (Upstate, 05-591MG) are incubated in 384 well black flat-bottom polystyrene high-binding plates (Corning, Catalog #3708) overnight at room temperature. The ELISA plates are blocked with 2% bovine serum albumin (BSA) and phosphate buffered saline (PBS) for one hour then incubated with lysates diluted in 2% BSA, 0.1% Tween-20 and PBS for two hours at room temp. In between each incubation, the plates are washed three times with 0.05% Tween-20 in PBS. ELISAs for measuring phospho-ErbB1, -ErbB2 and -ErbB3 are incubated with phospho-tyrosine horseradish peroxidase (HRP) linked monoclonal antibody (R&D Systems, HAM1676) for two hours. ELISAs measuring phospho-AKT are incubated with primary serine 473 specific anti-phospho AKT mouse monoclonal antibody (Cell Signaling Technologies, Catalog #5102) for 2 hours, then incubated with Streptavidin-HRP (R&D Systems, Catalog # DY998,) for 30 minutes. All ELISAs are visualized with SuperSignal ELISA Pico Chemiluminescent Substrate (Pierce, Catalog #37069) and luminescent signal is measured using a luminometer.

pErbB2 in NCI-ADRr cells = experiment: ErbB2 phosphorylation dose response curves for ErbB ligands (ELISA); type: cell-based, human
Protocol: as §1, §2

pErbB3 in NCI-ADRr cells = experiment: ErbB3 phosphorylation dose response curves for ErbB ligands (ELISA); type: cell-based, human
Protocol: as §1, §2

pAKT in NCI-ADRr cells = experiment: AKT phosphorylation dose response curves for ErbB ligands (ELISA); type: cell-based, human
Protocol: as §1, §2

ErbB3 (E3) = ErbB3 (E3) (Homo sapiens, UniProt P21860); experiment: ErbB computational model: HRG ligand binding rate parameters
Excerpt: (§3) The ErbB receptor signaling network model consists of three receptors (ErbB1, ErbB2, ErbB3), a receptor phosphatase, phosphatidylinositol 3-kinase (PI3K, which binds the receptors) and components of the PI3K-AKT cascade (phosphatidylinositol bisphosphate, PIP2, phosphoinositide-dependent protein kinase, PDK1, PTEN deleted from chromosome 10, PTEN, serine, threonine protein kinase also known as protein kinase B, AKT, Protein phosphatase 2A, PP2A) (see Table 8 below).
(§4) Many of the reaction rate parameters are unknown in the cell system we studied and therefore had to be estimated (see Table 10 below). To avoid biasing the starting point, all parameters were set to default values (Aldridge, B. B. et al. (2006) Nat. Cell. Biol. 8:1195-1203). The number of parameters estimated was limited by performing the estimation in two stages: first the model was calibrated against the experimentally observed ErbB receptor phosphorylation data; second, the parameters sensitive to AKT phosphorylation were optimized against the experimental data. Estimated values were only accepted if the parameters were constrained under multiple parameter runs using a genetic algorithm with a population size of 50 and 25 generations (Mathworks, Mass.). […] The normalized sensitivities of each species were integrated over the two hour stimulation, and parameters with normalized, integrated sensitivities greater than an arbitrary threshold of 1000 are listed in Table 11 below. As mentioned above, ErbB4 phosphorylation was not included into the parameter estimation because the cell line studied had barely detectable ErbB4 (see Table 3 below). ErbB4 reactions are parameterized according to ErbB3 reactions.

ErbB1 (E1) = ErbB1 (E1) (Homo sapiens, UniProt P00533); experiment: ErbB computational model: BTC ligand binding rate parameters
Excerpt: as §3, §4

[1] = test system: MALME3M xenograft tumor model; experiment: Xenograft efficacy study with Ab #6, MALME3M model; type: in vivo, mouse
Excerpt: (§5) In this example, four xenograft tumor models were used to identify tumor cell lines that responded to treatment with the anti-ErbB3 antibody Ab #6. The four xenograft tumor models studied represent different indications: MALME3M (melanoma cancer line; ATCC No. HTB-64), ADRr (ovarian cancer cell line; NCI-60, cosmic sample ID No. 905987), ACHN (renal cancer cell line; ATCC No. CRL-1611) and DU145 (prostate cancer cell line; ATCC No. HTB-81).
(§6) In the xenograft tumor models, mice (nu/nu mice: 3-4 week old female mice, T-cell deficient; outbred; Albino background; from Charles River Labs, Wilmington, Mass.) are implanted in the right flank with 3.5×10^6-3×10^8 cells/mouse (depending on cell line) in 200 μl via subcutaneous injection. Mice are monitored for initial tumor growth. Tumor cells are allowed to grow for several days until the tumor volume is approximately 200 mm^3. The tumor volume is calculated as V=(π/6 (L×W^2). The mice are treated with the Ab #6 antibody at a dosage of 600 μg/injection every 3 days (qd3). Control mice are treated with phosphate buffered saline (PBS).
(§7) Tumor volume is measured for 60-80 days.
(§8) As a measure of responsiveness of the tumor to Ab #6, the exponential growth rate is determined, which described the experimental data best. The following formula is used to describe the exponential growth. […]

[2] = test system: DU145 xenograft tumor model; experiment: Xenograft efficacy study with Ab #6, DU145 model; type: in vivo, mouse
Excerpt: as §5, §6, §7, §8

[3] = test system: ADRr xenograft tumor model; experiment: Xenograft efficacy study with Ab #6, ADRr model; type: in vivo, mouse
Excerpt: as §5, §6, §7, §8

[4] = test system: ACHN xenograft tumor model; experiment: Xenograft efficacy study with Ab #6, ACHN model; type: in vivo, mouse
Excerpt: as §5, §6, §7, §8

[5] = test system: IGROV1 xenograft tumor model; experiment: Xenograft study with Ab #6 (predicted set), IGROV1; type: in vivo, mouse
Protocol: as §6
(§9) To test these model predictions, three additional in vivo xenograft studies were performed. The IGROV1, OVCAR8 and SKOV3 cell lines were used in xenograft studies conducted as described in Example 1, wherein mice were treated with 600 μg of Ab #6 every 3 days or with PBS as a control. The xenograft responses, as determined by changes in tumor volume (in mm^3) over time, are summarized in the graphs of FIGS. 9A-9C. Again, the Growth Rate Reduction (GRR) value for each cell line was calculated using the following formula:
(§10) Growth Rate Reduction=1−(Ab #6 Growth Rate)/(PBS Growth Rate)

[6] = test system: OVCAR8 xenograft tumor model; experiment: Xenograft study with Ab #6 (predicted set), OVCAR8; type: in vivo, mouse
Protocol: as §6, §9, §10

[7] = test system: SKOV3 xenograft tumor model; experiment: Xenograft study with Ab #6 (predicted set), SKOV3; type: in vivo, mouse
Protocol: as §6, §9, §10

ErbB3 = ErbB3 (Homo sapiens, UniProt P21860); experiment: Ab #6 rate constants measured by Kinexa (inhibitor parameter values); type: binding
[8] = estimated using known Kds and initial dose response curves
[9] = Ab #6 600 μg/injection every 3 days vs PBS, negative GRR set to zero
[10] = Ab #6 600 μg/injection every 3 days vs PBS
[11] = 600 μg of Ab #6 every 3 days vs PBS

Molecule: HB-EGF: ErbB ligand, heparin-binding epidermal growth factor
- EC50 (pErbB1 in NCI-ADRr cells): 21 nM
- pErbB1 % stimulation at 5 min relative to maximum (pErbB1 in NCI-ADRr cells): 87.0%
- EC50 (pErbB2 in NCI-ADRr cells): 230 nM
- pErbB2 % stimulation at 5 min relative to maximum (pErbB2 in NCI-ADRr cells): 94.0%
- pErbB3 % stimulation at 5 min relative to maximum (pErbB3 in NCI-ADRr cells): 32.0%
- pAKT % stimulation at 5 min relative to maximum (pAKT in NCI-ADRr cells): 20.0%

Molecule: HRG1-β: ErbB ligand heregulin, binds to ErbB3 and ErbB4
- pErbB1 % stimulation at 5 min relative to maximum (pErbB1 in NCI-ADRr cells): 0.0%
- EC50 (pErbB2 in NCI-ADRr cells): 7 nM
- pErbB2 % stimulation at 5 min relative to maximum (pErbB2 in NCI-ADRr cells): 43.0%
- EC50 (pErbB3 in NCI-ADRr cells): 9.9 nM
- pErbB3 % stimulation at 5 min relative to maximum (pErbB3 in NCI-ADRr cells): 100.0%
- EC50 (pAKT in NCI-ADRr cells): 1.9 nM
- pAKT % stimulation at 5 min relative to maximum (pAKT in NCI-ADRr cells): 100.0%
- forward binding rate (ErbB3 (E3); [8]): ~100000 M⁻¹ s⁻¹
- kf2: HRG binding to E3:E2 dimers (ErbB3 (E3); model parameter): 5.00 × 10^−11 molecules−1 sec−1
- kr1: HRG dissociation from E3 (ErbB3 (E3); model parameter): 0.001 s⁻¹
- kr2: HRG dissociation from E3:E2 dimers (ErbB3 (E3); model parameter): 0.001 s⁻¹
- kf127: HRG binding in the endosome (ErbB3 (E3); model parameter, endosome): 3.8 molecules−1 sec−1
- kf1: HRG binding to E3 or E4 (ErbB3 (E3); model parameter, unit conversion from 1e5 M−1s−1/(Vmedia*Av/Num_cells)): 5.00 × 10^−11 molecules−1 sec−1

Molecule: TGFα: ErbB ligand, transforming growth factor alpha
- EC50 (pErbB1 in NCI-ADRr cells): 30 nM

Molecule: BTC: ErbB ligand betacellulin, binds primarily to ErbB1
- EC50 (pErbB1 in NCI-ADRr cells): 5.7 nM
- EC50 (pErbB3 in NCI-ADRr cells): 100 nM
- forward binding rate (ErbB1 (E1); [8]): ~100000 M⁻¹ s⁻¹
- kf3: BTC binding to E1 (ErbB1 (E1); model parameter): 5.00 × 10^−11 molecules−1 sec−1
- kf4: BTC binding to E1 homodimers (ErbB1 (E1); model parameter): 5.00 × 10^−11 molecules−1 sec−1
- kf5: BTC binding to E1 heterodimers (ErbB1 (E1); model parameter): 5.00 × 10^−11 molecules−1 sec−1
- kr3: BTC dissociation from E1 (ErbB1 (E1); model parameter): 0.001 s⁻¹
- kf129: BTC binding in the endosome (ErbB1 (E1); model parameter, endosome): 3.8 molecules−1 sec−1

Molecule: Epiregulin: ErbB ligand epiregulin
- pErbB1 % stimulation at 5 min relative to maximum (pErbB1 in NCI-ADRr cells): 9.0%
- pErbB2 % stimulation at 5 min relative to maximum (pErbB2 in NCI-ADRr cells): 18.0%
- pAKT % stimulation at 5 min relative to maximum (pAKT in NCI-ADRr cells): 11.0%

Molecule: AR: ErbB ligand amphiregulin
- EC50 (pErbB1 in NCI-ADRr cells): 37 nM
- pErbB1 % stimulation at 5 min relative to maximum (pErbB1 in NCI-ADRr cells): 95.0%
- pErbB2 % stimulation at 5 min relative to maximum (pErbB2 in NCI-ADRr cells): 54.0%
- EC50 (pErbB3 in NCI-ADRr cells): 380 nM
- pErbB3 % stimulation at 5 min relative to maximum (pErbB3 in NCI-ADRr cells): 17.0%
- pAKT % stimulation at 5 min relative to maximum (pAKT in NCI-ADRr cells): 28.0%

B1: Epigen: ErbB ligand epigen (protein, UniProt Q6UW88 23-154, looked up)
Epigen: AAVTVTPPITAQQGNWTVNKTEADNIEGPIALKFSHLCLEDHNSYCINGACAFHHELEKAICRCFTGYTGERCEHLTLTSYAVDSYEKYIAIGIGVGLLLSGFLVIFYCYIRKRCLKLKSPYNVCSGERRPL
- pErbB1 % stimulation at 5 min relative to maximum (pErbB1 in NCI-ADRr cells): 12.0%
- pErbB2 % stimulation at 5 min relative to maximum (pErbB2 in NCI-ADRr cells): 25.0%
- pErbB3 % stimulation at 5 min relative to maximum (pErbB3 in NCI-ADRr cells): 3.0%
- pAKT % stimulation at 5 min relative to maximum (pAKT in NCI-ADRr cells): 11.0%

B2: Ab #6: anti-ErbB3 antibody described in WO 2008/100624, VH and VL sequences of SEQ ID NOs: 1 and 2 (antibody, V domains shown)
VH: EVQLLESGGGLVQPGGSLRLSCAASGFTFSHYVMAWVRQAPGKGLEWVSSISSSGGWTLYADSVKGRFTISRDNSKNTLYLQMNSLRAEDTAVYYCTRGLKMATIFDYWGQGTLVTVSS
VL: QSALTQPASVSGSPGQSITISCTGTSSDVGSYNVVSWYQQHPGKAPKLIIYEVSQRPSGVSNRFSGSKSGNTASLTISGLQTEDEADYYCCSYAGSSIFVIFGGGTKVTVL
- GRR [%] (Tumor Growth Rate Reduction) [1, 9]: 0%
- effect of antibody treatment on tumor growth ([1]; compared to PBS control): did not inhibit tumor growth
- GRR [%] (Tumor Growth Rate Reduction) [2, 10]: 72.6%
- effect of antibody treatment on tumor growth ([2]; compared to PBS control): inhibited tumor growth
- GRR [%] (Tumor Growth Rate Reduction) [3, 9]: 0%
- effect of antibody treatment on tumor growth ([3]; compared to PBS control): did not inhibit tumor growth
- GRR [%] (Tumor Growth Rate Reduction) [4, 10]: 28.0%
- effect of antibody treatment on tumor growth ([4]; compared to PBS control): inhibited tumor growth
- experimentally observed responsiveness based on GRR value [5]: non-responder
- GRR [%] (Tumor Growth Rate Reduction) [5, 11]: 6.3%
- experimentally observed responsiveness based on GRR value [6]: responders
- GRR [%] (Tumor Growth Rate Reduction) [6, 11]: 91.4%
- experimentally observed responsiveness based on GRR value [7]: responders
- GRR [%] (Tumor Growth Rate Reduction) [7, 11]: 19.6%
- Ab #6 on-rate for binding to ErbB3 before unit conversion (ErbB3): calculated as 1.43e5 M^−1s^−1/(Vmedia*Av/Num_cells).
- kf Ab #6 _2: Ab #6 inhibitor binding to a second ErbB3 (ErbB3; avidity due to volume reduction (Vmedia/Numcells)/Vshell): 4.96E−05 molecules^−1 sec^−1
- kf Ab #6 _1: Ab #6 inhibitor binding to ErbB3 (ErbB3; unit conversion of on-rate/(Vmedia*Av/Num_cells), Num_cells = 30,000 per well): 7.15E−11 molecules^−1 sec^−1
